Assay results: patent US12077566B2, “Mutants of recombinant immunoregulatory protein of Ganoderma lucidum and applications thereof” (priority 2017, dated 2024)
“Also recorded” adds a separate entry of the source.

Key:
[1] = tested on: human liver cancer Hep G2 cells; settings: for Tumor inhibitory effect (in words): after administration for 28 days; for Mice weight after experiment / Effect on survival time of the mice (in words): mouse, in vivo; for Mice tumor weight after experiment / Survival rate of mice after experiment: qd×28 i.v., rLZ-8 and mutants 0.5 mg/kg, sorafenib 50 mg/kg; for Survival rate of mice after experiment: 10 mice per group
Excerpt: Two weeks later, the model mice are divided into groups randomly, and each group has 10 mice. The administration method is caudal vein injection, once a day, for consecutive 28 days (qd×28, i.v.). […] During the experiment, if the mouse dies, the dead mouse is weighted on the same day, and the tumor tissue is taken out to be weighted. For the living mouse after administration for 28 days, the mouse is killed, and then the tumor tissue is taken out to be weighted. The death time and death number of the mice in each group are recorded in detail; the survival conditions of the mice of the experimental groups and the control groups are analyzed, and the survival rate is calculated, wherein the survival rate is obtained through subtracting the death number of the mice from the total number of the mice, and then dividing the difference by the total number of the mice.

[2] = biological target: EGFR extracellular domain (Homo sapiens, UniProt P00533); experiment: Affinity test by surface plasmon resonance (Biacore T200, CM5 chip); type: binding; settings: for Affinity with the EGFR (in words): compared with rLZ-8
Description: The Biacore™ T200 equipment (a Surface Plasmon Resonance from GE Company) is selected. Through the surface plasma resonance technology, the affinity of the rLZ-8 and the mutants thereof to the EGFR extracellular domain is tested. The CM5 chip is adopted to serve as the affinity test chip.
The EGFR extracellular domain (with an amino acid sequence of 25-645) serves as the ligand for coupling; 1 mg EGFR freeze-dried powders are diluted with HEPES buffer solution to a concentration of 400 μg/mL and set aside. Three 1.5 mL EP tubes are prepared; 10 μL ligand are respectively added into the three tubes, then 90 μL 10 mM sodium acetate with different pH values of 4.5, 5.0 and 5.5 are respectively added into the tubes and are mixed completely and uniformly; and a final concentration of the ligand is 40 μg/mL. Moreover, 200 μL 50 mM sodium acetate is added into another 1.5 mL EP tube.
The ligand has a molecular weight of 70 kDa, the analyte (rLZ-8) has a molecular weight of 12.4 kDa. In theory, one rLZ-8 […] can bind with one EGFR, and thus the stoichiometric ratio Sm is equal to 1. Through the following equations, the coupling amount RL of the ligand is calculated.
Through the experimental experience, the optimal reagent coupling amount is set to be 3*RL, and the coupling amount is set to be 1700 RU. The EGFR extracellular domain is successively coupled on the CM5 chip.
In the affinity test, in order to eliminate the influence of different concentrations on the affinity, every of the rLZ-8 and the mutants thereof are tested with eight concentrations, wherein: seven concentrations are gradient concentrations, and the last one is the test reference concentration.

[3] = tested on: Hep G2 cytomembrane; experiment: In vitro cellular activity: binding with Hep G2 cytomembrane and entering the cell; type: cell-based; settings: 100 μg/mL
[4] = tested on: human lung cancer A549 cells; experiment: Orthotopic transplantation tumor model of human lung cancer A549 cells; settings: for Mice survival rate after experiment / Mice tumor weight after experiment / Mice weight after experiment / Tumor inhibitory effect (in words): after administration for 28 days; for Effect on survival time (in words): compared with the rLZ-8;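 as to all read-outs here: test animals were NOG mice aged 6-8 weeks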
Description: The human lung cancer A549 cell strain is selected. The NOG Mice of 6-8 weeks old are selected.
The DMEM containing 10% fetal bovine serum is selected for the human lung cancer A549 cells, and then is placed in the CO2 constant-temperature incubator at 37° C. for culturing. The A549 cells at the logarithmic phase are digested by pancreatin and thereafter washed with serum-free DMEM; the living cell concentration is adjusted to 1×10^8 cells per milliliter; 20 μL cell suspension is taken and inoculated at the lung of the NOG mice; two weeks later, the orthotopic transplantation tumor model of A549 lung cancer cells is constructed in the NOG mice.

[5] = tested on: liver cancer, lung cancer, breast cancer and colon cancer; experiment: Animal pharmacodynamic experiments of liver, lung, breast and colon cancer (summary statement); type: in vivo, mice; settings: breast and colon cancer models together
[6] = tested on: human colon cancer SW480 cells; experiment: Transplantation tumor model of human colon cancer SW480 cells; type: in vivo, BALB/c nude mice; settings: after administration for 28 days
Description: The RPMI1640 medium containing 10% fetal bovine serum is selected for the human colon cancer SW480 cells, and then is placed in the CO2 constant-temperature incubator at 37° C. for culturing. The SW480 cells at the logarithmic phase are digested by pancreatin and thereafter washed with serum-free RPMI1640 medium; 2×10^6 cells are inoculated below the back skin of the BALB/c nude mice; after the tumor blocks for observation are formed and have the diameter larger than 0.5 cm, the mice are divided into groups randomly; and the transplantation tumor model of human colon cancer SW480 cells are constructed in the BALB/c nude mice.

[7] = tested on: human breast cancer MCF7 cells; experiment: Orthotopic transplantation tumor model of human breast cancer MCF7 cells; type: in vivo, BALB/c nude mice; settings: after administration for 28 days
Description: One day before the experiment, 0.5 mg of 17ß estradiol sustained release tablet is embedded below the neck skin of the BALB/c nude mice.

[8] = tested on: tumor; experiment: Early animal pharmacodynamic experiments of PEG-modified rLZ-8; type: in vivo; settings: compared with rLZ-8
[9] = EGFR extracellular domain coupled on CM5 chip, analyte 4-256 nM

| Molecule | Tumor inhibitory effect (in words) [1] | Mice weight after experiment [1] [g] | Mice tumor weight after experiment [1] [g] | Survival rate of mice after experiment [1] [%] | Ka [2, 9] [M⁻¹ s⁻¹] | Affinity with the EGFR (in words) [2] | Mice survival rate after experiment [4] [%] | Mice tumor weight after experiment [4] [g] | Mice weight after experiment [4] [g] | Tumor inhibitory effect (in words) [4] | Tumor inhibitory effect (in words) [5] | Mice tumor weight after experiment [6] [g] | Tumor inhibitory effect (in words) [6] | Mice tumor weight after experiment [7] [g] | Tumor inhibitory effect (in words) [7] | Effect on survival time of the mice (in words) [1] | Effect on survival time (in words) [4] | further results |
| --- | --- | --- | --- | --- | --- | --- | --- | --- | --- | --- | --- | --- | --- | --- | --- | --- | --- | --- |
| rLZ-8 (K16A/S18A/K41A/D45A): alanine mutant of rLZ-8 at K16, S18, K41 and D45 (protein) MSDTALIFRLAWDVKALAFDYTPNWGRGNPNNFIDTVTFPAVLTAKAYTYRVAVSGRNLGVKPSYAVESDGSQKVNFLEYNSGYGIADTNTIQVFVVDPDTNNDFIIAQWN | nearly no tumor inhibitory effect | 17.3 ± 1.5 | 1.62 ± 0.72 | 30 | 139 | obviously decreased by 2-3 orders of magnitudes | 10 | 1.22 ± 0.83 | 17.6 ± 1.4 | nearly no tumor inhibitory effect | nearly no tumor inhibitory effect | 3.12 ± 0.54 | nearly no tumor inhibitory effect | 1.02 ± 0.33 | nearly no tumor inhibitory effect | – | – | Dissociation rate constant (koff) [2, 9]: 0.00423 s⁻¹; Affinity with the EGFR (in words) ([2]; listed as rLZ-8 (K16A/S18A/K41 A/D45A)): obviously decreased affinity; Binding with the Hep G2 cytomembrane and entering the cell (in words) [3]: little binding amount with the Hep G2 cytomembrane and nearly cannot be observed to enter the cell |
| rLZ-8 (L17K/D70K): rLZ-8 mutant after surface potential optimization, L17K and D70K (protein) MSDTALIFRLAWDVKKKSFDYTPNWGRGNPNNFIDTVTFPKVLTDKAYTYRVAVSGRNLGVKPSYAVESKGSQKVNFLEYNSGYGIADTNTIQVFVVDPDTNNDFIIAQWN | obviously increased tumor inhibitory effects | 21.0 ± 1.8 | 0.42 ± 0.23 | 90 | 215000 | – | 80 | 0.40 ± 0.26 | 21.2 ± 1.5 | obviously increased tumor inhibitory effect | obviously increased tumor inhibitory effects | 1.09 ± 0.33 | obviously increased tumor inhibitory effect | 0.49 ± 0.26 | obviously increased tumor inhibitory effect | certain effect on lengthening the survival time | can obviously lengthen the survival time | – |
| rLZ-8 (D70K): rLZ-8 mutant after surface potential optimization, D70K (protein) MSDTALIFRLAWDVKKLSFDYTPNWGRGNPNNFIDTVTFPKVLTDKAYTYRVAVSGRNLGVKPSYAVESKGSQKVNFLEYNSGYGIADTNTIQVFVVDPDTNNDFIIAQWN | obviously increased tumor inhibitory effects | 20.7 ± 1.7 | 0.35 ± 0.21 | 80 | 203000 | – | 80 | 0.36 ± 0.28 | 21.1 ± 1.2 | obviously increased tumor inhibitory effect | obviously increased tumor inhibitory effects | 1.22 ± 0.29 | obviously increased tumor inhibitory effect | 0.52 ± 0.28 | obviously increased tumor inhibitory effect | certain effect on lengthening the survival time | can obviously lengthen the survival time | – |
| rLZ-8 (S18A): alanine mutant of rLZ-8 at S18 (protein) MSDTALIFRLAWDVKKLAFDYTPNWGRGNPNNFIDTVTFPKVLTDKAYTYRVAVSGRNLGVKPSYAVESDGSQKVNFLEYNSGYGIADTNTIQVFVVDPDTNNDFIIAQWN | nearly no tumor inhibitory effect | 17.6 ± 1.4 | 1.50 ± 0.71 | 30 | 3720 | obviously decreased by 2-3 orders of magnitudes; also recorded: obviously decreased affinity | 30 | 1.20 ± 0.70 | 17.8 ± 1.6 | nearly no tumor inhibitory effect | nearly no tumor inhibitory effect | 3.01 ± 0.39 | nearly no tumor inhibitory effect | 1.04 ± 0.30 | nearly no tumor inhibitory effect | – | – | – |
| rLZ-8 (D45A): alanine mutant of rLZ-8 at D45 (protein) MSDTALIFRLAWDVKKLSFDYTPNWGRGNPNNFIDTVTFPKVLTAKAYTYRVAVSGRNLGVKPSYAVESDGSQKVNFLEYNSGYGIADTNTIQVFVVDPDTNNDFIIAQWN | nearly no tumor inhibitory effect | 17.4 ± 1.6 | 1.44 ± 0.80 | 50 | 1200 | obviously decreased by 2-3 orders of magnitudes; also recorded: obviously decreased affinity | 30 | 1.28 ± 0.68 | 17.5 ± 1.5 | nearly no tumor inhibitory effect | nearly no tumor inhibitory effect | 3.26 ± 0.56 | nearly no tumor inhibitory effect | 1.08 ± 0.28 | nearly no tumor inhibitory effect | – | – | – |
| mPEG-SPA-rLZ-8: rLZ-8 modified with methoxy polyethylene glycol succinimidyl propionate (conjugate, UniProt P14945 2-111, looked up, mPEG-SPA PEGylation, rLZ-8 modified with methoxy polyethylene glycol succinimidyl propionate) Immunomodulatory protein Ling …: SDTALIFRLAWDVKKLSFDYTPNWGRGNPNNFIDTVTFPKVLTDKAYTYRVAVSGRNLGVKPSYAVESDGSQKVNFLEYNSGYGIADTNTIQVFVVDPDTNNDFIIAQWN | – | – | – | – | – | – | – | – | – | – | – | – | – | – | – | – | – | Antitumor effect (in words) [8]: decreased |
